The source of these data is article PMC12297555.

The data set addresses T1, ScoC (Geobacillus kaustophilus strain T-1, UniProt Q5L293 1-201).
T1 sequence: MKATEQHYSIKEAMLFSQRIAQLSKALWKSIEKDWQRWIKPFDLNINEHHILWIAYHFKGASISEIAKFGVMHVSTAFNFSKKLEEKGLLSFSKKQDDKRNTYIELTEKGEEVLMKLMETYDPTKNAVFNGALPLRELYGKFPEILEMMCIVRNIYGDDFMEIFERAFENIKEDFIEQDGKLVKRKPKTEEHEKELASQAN
Briefly: X-ray crystallography.

B1: Oligo 4, 23-bp symmetric palindromic dsDNA (dsDNA)
DNA 1: AATATTATTAACAAAATAATATT
DNA 2: AATATTATTTTGTTAATAATATT
Take B1: the binding result was “binds”.
